Patent US20170218047A1, “NOVEL FUSION PARTNERS FOR THE PURPOSE OF CRYSTALLIZING G-PROTEIN COUPLED RECEPTORS” (THE SCRIPS RESEARCH INSTITUTE, priority 2011, published 2017)

Experiment: Size exclusion chromatography (SEC) of purified S1P1-fusion partner proteins
Type: physicochemical
Details: presence or absence of ligand
Experimental: S1P1-fusion partner proteins (“S1P1 fusion receptors”) were purified from membranes by dodecyl-maltoside (DDM) extraction followed by immobilized metal affinity chromatography (IMAC) on Talon resin (Clontech) as detailed below. Frozen cellular membranes were thawed by adding room temperature lysis buffer to a total volume of 25 mL. The S1P1 receptor antagonist W146 was added to a final concentration of 125 μM. The mixture was allowed to incubate at room temperature for 1 hour to ensure complete saturation of the receptor with ligand followed by addition of iodoacetamide to a concentration of 1 mg/mL and an additional 1 hour incubation at 4° C. Receptor solubilization was initiated by addition of detergent and cholesteryl hemisuccinate (CHS) to achieve a final concentration of 0.5% DDM 0.1% CHS. The solubilization buffer consisted of the following mixture: 50 mM Hepes pH 7.5; 800 mM NaCl; 30 mM Imidazole; 0.1% DDM 0.02% CHS; 125 μM W146. […]
Eluted proteins were analyzed by size-exclusion chromatography (SEC) followed by SDS-PAGE. […] SEC fractions corresponding to S1P1-fusion partner proteins were evaluated separated by SDS-PAGE on a 10% gel and stained, confirming that each S1P1-fusion partner protein could be purified to near-homogeneity (data not shown).

B1: S1P1-flavodoxin: S1P1 receptor with flavodoxin replacing part of ICL3, SEQ ID NO: 3 (protein, listed as Homo sapiens)
chain: MGPTSVPLVKAHRSSVSDYVNYDIIVRHYNYTGKLNISADKENSIKLTSVVFILICCFIILENIFVLLTIWKTKKFHRPMYYFIGNLALSDLLAGVAYTANLLLSGATTYKLTPAQWFLREGSMFVALSASVFSLLAIAIERYITMLKMKLHNGSNNFRLFLLISACWVISLILGGLPIMGWNCISALSSCSTVLPLYHKHYILFCTTVFTLLLLSIVILYCRIYSLVRTRAKALIVYGSTTGNTEYTAETIARELADAGYEVDSRDAASVEAGGLFEGFDLVLLGCSTWGDDSIELQDDFIPLFDSLEETGAQGRKVACFGCGDSSWEYFCGAVDAIEEKLKNLGAEIVQDGLRIDGDPRAARDDIVGWAHDVRGAIASRSSENVALLKTVIIVLSVFIACWAPLFILLLLDVGCKVKTCDILFRAEYFLVLAVLNSGTNPIIYTLTNKEMRRAFIRIM
stability by SEC (in words): stable in the presence or absence of ligand
